From patent publication US20040126819A1 (LICENTIA, published 2004) come the findings set out here.

In assay [1] the target is T1, 135 kD GDNF receptor subunit of rat cell lines.
T1 construct: On C6, L6, RN33B and RN46A cells
Kind of assay: displacement of 125I-GDNF by cold GDNF on RN33B cells, cross-linking, SDS-PAGE, bands counted. The method, then: (§1) Plated cells were incubated with 10 ng/ml […] at 4° C. in binding buffer as described above. Ligand/receptor complexes were chemically cross-linked for thirty minutes at room temperature using either disuccinimidyl suberate (DSS) or 1-Ethyl-3(-3-dimethylaminopropyl)-carbodiimide hydrochloride (EDAC) (Pierce Chemical, Rockland, Ill.). Following quenching of the cross-linking reactions, cells were washed twice with 10 mM Tris/HCl buffered saline, 2 mM EDTA, 10% glycerol, 1% NP40, 1% Triton x-100, 10 μg/ml leupeptin, 10 μg/ml antipain, 50 μg/ml aprotinin, 100 μg/ml benzamidine hydrochloride, 10 μg/ml pepstatin and 1 mM PMSF(proteinase inhibitors from Sigma). Cleared lysates were boiled for 5 min in SDS/β-mercaptoethanol buffer, fractionated by SDS/PAGE on 4-20% gradient electrophoresis gels, and visualized by autoradiography. […] These samples were fractionated by gradient SDS/PAGE, gels were then dried and specific bands excised according to molecular weights determined from autoradiograms, and count in a gamma counter. […]
(§2) In order to dissect the individual constituent affinities of GDNF receptor subunits, displacement binding assays were performed, followed by cross-linking and SDS-PAGE. Receptor-ligand complexes were visualized by autoradiography, cut out from the gel and counted in a gamma counter.

Assay [2] has as its target T2, 300 kD GDNF receptor subunit of rat cell lines.
T2 construct: On C6, L6, RN33B, RN46A and ST15A cells; also called large molecular weight band; high molecular weight component
The assay is described as above. The method, then:
as §1, §2

In assay [3] the target is 300 kD GDNF receptor subunit of mouse cell lines (MN-1, TM4, SK-N-SH as printed). Kind of assay: displacement of 125I-GDNF by cold GDNF on MN-1 cells, cross-linking, SDS-PAGE, bands counted. The method, then: as §1, §2
For assay [4], the target named is T1, 135 kD GDNF receptor subunit of rat …. Description: displacement of 125I-GDNF by increasing cold GDNF on RN33B cells, cross-linking, SDS-PAGE, band of the subunit cut out and counted. The method, then: (§3) Plated cells were incubated with 10 ng/ml […] at 4° C. in binding buffer as described above. Ligand/receptor complexes were chemically cross-linked for thirty minutes at room temperature using either disuccinimidyl suberate (DSS) or 1-Ethyl-3(-3-dimethylaminopropyl)-carbodiimide hydrochloride (EDAC) (Pierce Chemical, Rockland, Ill.). Following quenching of the cross-linking reactions, cells were washed twice with 10 mM Tris/HCl buffered saline, 2 mM EDTA, 10% glycerol, 1% NP40, 1% Triton x-100, 10 μg/ml leupeptin, 10 μg/ml antipain, 50 μg/ml aprotinin, 100 μg/ml benzamidine hydrochloride, 10 μg/ml pepstatin and 1 mM PMSF(proteinase inhibitors from Sigma). Cleared lysates were boiled for 5 min in SDS/β-mercaptoethanol buffer, fractionated by SDS/PAGE on 4-20% gradient electrophoresis gels, and visualized by autoradiography. Molecular weights indicated were obtained by subtracting the weight of a GDNF ligand monomer, e.g., 25-30 kD, more preferably […], from the estimated molecular weights of cross-linked complexes visualized by SDS/PAGE. For affinity measurements of cross-linked complexes, cells were incubated on plates as above in the presence of increasing amounts of unlabeled GDNF. These samples were fractionated by gradient SDS/PAGE, gels were then dried and specific bands excised according to molecular weights determined from autoradiograms, and count in a gamma counter. […] Immunocomplexes were collected with Protein A-Sepharose (Pharmacia, Sweden), washed in lysis buffer and boiled for 5 minutes before SDS/PAGE and autoradiography as above.
as §2

For assay [5], the target named is T3, 70 kD GDNF receptor subunit of rat cell lines (designated GDNFR-β) (rat, UniProt O35977 22-444).
T3 construct: whole, on cells; also called 65-70 kD receptor; 100 kD complex (with GDNF) in RN33B cells
T3 sequence: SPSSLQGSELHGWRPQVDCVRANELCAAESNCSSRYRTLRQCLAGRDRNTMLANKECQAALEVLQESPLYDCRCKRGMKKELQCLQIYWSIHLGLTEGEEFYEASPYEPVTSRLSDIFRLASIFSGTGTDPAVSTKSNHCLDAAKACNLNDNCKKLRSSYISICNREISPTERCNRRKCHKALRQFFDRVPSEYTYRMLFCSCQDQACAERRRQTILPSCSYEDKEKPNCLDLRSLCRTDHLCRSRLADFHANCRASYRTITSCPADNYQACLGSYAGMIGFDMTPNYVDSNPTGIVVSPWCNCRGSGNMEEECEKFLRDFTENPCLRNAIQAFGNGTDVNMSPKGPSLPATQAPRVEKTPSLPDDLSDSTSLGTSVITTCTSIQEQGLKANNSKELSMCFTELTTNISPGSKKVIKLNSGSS
The description is as above. The method, then:
as §3, §2

In assay [6] the target is T2, 300 kD GDNF receptor subunit of rat …. The description is as above. The method, then: as §3, §2
Assay [7] addresses T4, 55 kD GDNF receptor subunit of rat cell lines (confirmed to be GDNFR-α) (rat, UniProt Q62997 25-430).
T4 construct: whole, on cells; also called 50-55 kD receptor; 70 kD complex (with GDNF) in RN33B cells
T4 sequence (looked up): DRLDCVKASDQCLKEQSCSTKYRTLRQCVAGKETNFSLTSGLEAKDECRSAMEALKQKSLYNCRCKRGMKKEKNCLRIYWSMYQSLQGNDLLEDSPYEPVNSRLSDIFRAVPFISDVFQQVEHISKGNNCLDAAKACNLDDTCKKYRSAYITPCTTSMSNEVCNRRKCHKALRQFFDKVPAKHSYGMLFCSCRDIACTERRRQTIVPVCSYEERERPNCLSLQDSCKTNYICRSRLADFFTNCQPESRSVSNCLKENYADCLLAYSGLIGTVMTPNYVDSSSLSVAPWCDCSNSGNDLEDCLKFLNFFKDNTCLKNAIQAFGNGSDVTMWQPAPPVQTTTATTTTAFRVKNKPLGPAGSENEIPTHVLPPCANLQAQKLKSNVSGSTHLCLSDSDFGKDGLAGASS
Described as above. The method, then: as §3, §2

B1: recombinant rat GDNF produced in Sf21 insect cells using a baculovirus expression system (ligand, UniProt Q07731 78-211, looked up)
chain: SPDKQAAALPRRERNRQAAAASPENSRGKGRRGQRGKNRGCVLTAIHLNVTDLGLGYETKEELIFRYCSGSCEAAETMYDKILKNLSRSRRLTSDKVGQACCRPVAFDDDLSFLDDSLVYHILRKHSAKRCGCI
modifications: labeled with Na-^125I by the chloramine-T method where used as tracer
notes: mature; also called glial cell line-derived neurotrophic factor
For B1, the Kd in assay [1], in assay [2] and in assay [3] was about 0.2 nM in each case. For the same molecule, the “IC50 (read off the curve)” value is about 0.2 nM in assay [4], about 0.2 nM in assay [5], about 0.1 nM in assay [6] and about 0.2 nM in assay [7].
